Experimental findings from US20130109581A1, “POSITIVELY CHARGED SPECIES AS BINDING REAGENTS IN THE SEPARATION OF PROTEIN AGGREGATES FROM MONOMERS” (priority 2009, published 2013) are described below.

The target in test [1] is Abeta 1-40 monomer (UniProt P05067). Briefly: MPA bead capture, Abeta 1-40 read-out of the CSF sample (noise).
Test [2] deals with Abeta 1-42 globulomer (UniProt P05067). Kind of test: 42 (globulomer) RLU over 40 (Abeta 1-40 monomer) RLU.
Test [3] has the same target. Kind of test: MPA bead capture, CSF + 1 ng/mL globulomer, Abeta immunoassay.
Test [4] addresses Abeta (1-42) aggregates from Alzheimer's Disease Brain Homogenate (human) (UniProt P05067). Briefly: MPA, AD brain homogenate in plasma, Abeta(1-42) ELISA.
The target is the same in test [5]. Kind of test: MPA, AD brain homogenate in CSF, Abeta(1-42) ELISA.

Consider link-FKFKKK (peptide), for which the average RLU (40) in test [1] was found to be 198 RLU.

For the substance AKKKKK (peptide), in test [1], the average RLU (40) amounted to 176 RLU.

Consider link-kkkfkf (peptide), for which the 42:40 ratio in test [2] amounted to 6.3. For the same substance, in test [1], the average RLU (40) stood at 254 RLU. The average RLU (42) in test [3] was found to be 1600 RLU.

Take peptoid +++++++: the limit of detection amounted to 2.5 mL/assay in test [4] and 1.6 mL/assay in test [5].

For the substance AKKKKA (peptide), in test [1], the average RLU (40) is 156 RLU.

Regarding AAKKKA (peptide), the average RLU (40) in test [1] was determined as 159 RLU.

Consider AAKKAA (peptide), for which the average RLU (40) in test [1] is 147 RLU.

On to link-KKKFKF (peptide), for which the average RLU (40) in test [1] was 279 RLU.

For the substance DFKLNFKF (peptide), in test [1], the average RLU (40) was 260 RLU.

Substance “biotinylated PSR1 (+++A+A) on streptavidin magnetic beads” came in with a limit of detection in test [4] of 3.8 mL/assay.

With KKKKKK (peptide), the average RLU (40) in test [1] came out at 197 RLU.

ANFFAHSS (peptide): the average RLU (40) in test [1] amounted to 543 RLU.

AAAKAA (peptide): in test [1], the average RLU (40) stood at 134 RLU.

Regarding KKKFKF-link (peptide), the average RLU (40) in test [1] is 192 RLU.
